According to US20250042946A1, “Biological Production of Histidine-Rich Peptides” (Oakgrove Bio LLC, priority 2021, published 2025):

B1: IFP221: insolubility fusion partner of IFP221-Api; 3 × QQEYHYHYHYRQQ with GGGG spacers as in SEQ ID NO: 94 (protein)
chain: MASGGGQQEYHYHYHYRQQGGGGQQEYHYHYHYRQQGGGGQQEYHYHYHYRQQGGGDPGGGNNRPVYIPQPRPPHPRLGGGGDPGGGNNRPVYIPQPRPPHPRLGGGGDPGPGPHHHHHH
B2: IIP015: insoluble immunogenic peptide, 6 × SAP234 with 3 × Ova1, Structure 9, SEQ ID NO: 114 (protein)
chain: MASGGDPGGQQHYHYHQQGGGGSIINFEKLGGGGQQHYHYHQQGGDPGGQQHYHYHQQGGGGSIINFEKLGGGGQQHYHYHQQGGDPGGQQHYHYHQQGGGGSIINFEKLGGGGQQHYHYHQQGGDPGGPGPGP
B3: IIP003: insoluble immunogenic peptide, 6 × SAP162 with 3 × Ova1, Structure 9, SEQ ID NO: 104 (protein)
chain: MASGGDPGGHQEYHYHYRQHGGGGSIINFEKLGGGGHQEYHYHYRQHGGDPGGHQEYHYHYRQHGGGGSIINFEKLGGGGHQEYHYHYRQHGGDPGGHQEYHYHYRQHGGGGSIINFEKLGGGGHQEYHYHYRQHGGDPGGPGPGP
B4: IFP-Api-006: split fusion, two copies of Apidaecin sandwiched between three copies of IFP100, SEQ ID NO: 100 (protein)
chain: MASGGGQQHYHYHQQGGGGQQHYHYHQQGGDPGGGNNRPVYIPQPRPPHPPRGGDPGGQQHYHYHQQGGGGQQHYHYHQQGGDPGGGNNRPVYIPQPRPPHPPRGGDPGGQQHYHYHQQGGGGQQHYHYHQQGGGPGPGPHHHHH
B5: IFP-Api-003: split fusion, Apidaecin sandwiched between two copies of IFP100, cLNK GGDPGG, SEQ ID NO: 98 (protein)
chain: MASGGGQQHYHYHQQGGGGQQHYHYHQQGGDPGGGNNRPVYIPQPRPPHPPRGGDPGGQQHYHYHQQGGGGQQHYHYHQQGGGPGPGPHHHHHH
B6: IFP-Luna-006: split fusion, two copies of Lunasin sandwiched between three copies of IFP100, SEQ ID NO: 102 (protein)
chain: MASGGGQQHYHYHQQGGGGQQHYHYHQQGGDPGGSKWQHQQDSCRKQLQGVNLTPCEKHIMEKIQGRGDDDDDDDDDPGGGGQQHYHYHQQGGGGQQHYHYHQQGGDPGGSKWQHQQDSCRKQLQGVNLTPCEKHIMEKIQGRGDDDDDDDDDPGGGGQQHYHYHQQGGGGQQHYHYHQQGGGPGPGPHHHHHH

assay: not given; assay type: physicochemical; details: not given
Method: After the acid-based purification step at acidic pH described in Example 5, the neutralized insoluble fusion peptides were washed again with water to remove traces of buffer and were resuspended in 1 mL of 10 mM HCl pH 2. The precipitates resolubilized immediately thus highlighting the rapid, reversible and pH-controllable properties of the peptide fusions to IFPs The tubes containing the solubilized fusion peptides were incubated at 80° C. for 4 hours to allow the cleavage of the Asp-Pro acid-labile peptide bond in the linker connecting the IFP and the POI. After four hours at 80° C., the solutions were neutralized back to a pH comprised between 6.5 and 8.0 by addition of 60 μL of 500 mM Tris Base Tris per mL of pH 2 peptide solution. For most fusions, the neutralization was accompanied by the immediate formation of precipitates. When only a light precipitate was observed, the buffer was adjusted to neutrality by careful addition of HCl or of buffer base. The neutralized fractions were placed at −20° C. for 20 min to enhance precipitation, and then subsequently thawed and centrifuged at 20,000×g for 5 min. The supernatants were transferred to a new tube and the pellets resuspended in 1 ml of water. Aliquots of soluble and insoluble fractions were analyzed by PAGE.

| Molecule | solubility at neutral pH after acid cleavage (partition supernatant / pellet) |
| --- | --- |
| Apidaecin | recovered in the soluble fraction |
| IFP534: insolubility fusion partner, 4 × QQHYHYHQQ, GGGG linker, SEQ ID NO: 62 | remains in the insoluble fraction |
| Lunasin | recovered in the soluble fraction |
| B1 | remains in the insoluble fraction |

assay: not given; assay type: physicochemical; details: not given; remark: another data set of the same source
Method: After 15 min at pH 2, the acidified supernatant fraction were neutralized by addition of 40 μL 500 mM Tris base or 60 μL of Bis-Tris base per mL of pH 2 fraction to reach a pH comprised between 6.5 and 8.0. For most fusions, the neutralization was accompanied by the immediate formation of a precipitate. When only a light precipitate was observed, the buffer was adjusted to neutrality by addition of HCl or of buffer base. The neutralized fractions were placed at −20° C. for 20 min and were subsequently thawed. The neutralized fractions were then centrifuged at 20,000×g for 5 min. Their supernatant was discarded and the pellets containing the insoluble fusion peptides resuspended in 1 ml of water.

| Molecule | re-insolubilization (precipitation) upon neutralization |
| --- | --- |
| B2 | re-insolubilization |
| B3 | re-insolubilization |

assay: not given; assay type: physicochemical; details: pH 2
Method: To evaluate the useful solubilization of the IFPs at acidic and alkaline pH (from pH 2 to pH 12), the insoluble fractions of cell extracts expressing selected IFPs were produced as described in Example 2. They were pelleted by centrifugation for 5 min at 20,000×g and washed with water several times to remove the buffer. The washed pellets were resuspended in 10 mM HCl pH 2 or in 10 mM NaOH pH 12. Suspensions were mixed vigorously and allowed to stand at room temperature for 15 min at which time they were centrifuged again for 5 min at 20,000×g. The solubilization of the IFPs in either acidic (pH 2) or alkaline (pH 12) conditions was assessed by PAGE analysis of an aliquot of the centrifugation supernatant.
Cells were harvested by centrifugation at 20,000×g, resuspended in 1 mL of 25 mM Tris […] pH 7.5 and disrupted with a bead beater as described in Example 2. Following cell disruption and centrifugation, the insoluble fractions were washed several times in deionized water to remove traces of buffer and then recovered by centrifugation. The fractions were resuspended in 1 mL of 10 mM HCl pH 2 with repeated vortexing over 15 min at room temperature. […] Aliquots of each fraction corresponding to a same initial volume of cell extracts were analyzed by SDS-PAGE.

| Molecule | solubilization at acidic pH |
| --- | --- |
| B2 | solubilization |
| B3 | solubilization |

assay: Soluble versus insoluble fraction of E. coli cell extracts, SDS-PAGE; assay type: physicochemical; details: cell extract in 25 mM Tris 50 mM NaCl pH 7.5, centrifugation 20,000×g
Method: To determine the soluble versus insoluble cell contents, cells from each of the 3 mL cultures were harvested by centrifugation and the pellet resuspended in 1 ml of 25 mM Tris 50 mM NaCl PH 7.5 buffer. The cell suspensions were transferred in 2 mL screw cap tubes containing 0.5 mL of ZrO2/SiO4 0.1 mm beads (Research Product International, Mount Prospect, IL) and disrupted in a FastPrep-24™ bead beater (MP Bio Irvine, CA) for 1 min at 5 m/s. After disruption, the cell extracts were transferred to new microfuge tubes. The soluble and insoluble fractions were then separated by centrifugation at 20,000×g for 5 min. The supernatants containing the soluble proteins were transferred to new tubes and the pellets containing the inclusion bodies were resuspended in the same volume of Tris-NaCl buffer.
Ten μL aliquots of the soluble fraction and of the particulate fraction are analyzed by SDS-PAGE using precast NuPAGE™ Bis-Tris 12% polyacrylamide gels (Thermo Scientific) as indicated by the manufacturer. After electrophoresis, the proteins and peptides were visualized by staining with GelCode™ Blue Safe Protein Coomassie Stain (Thermo Scientific).

| Molecule | solubility of the polypeptide as expressed in E. coli |
| --- | --- |
| B4 | expressed the split fusion insolubly |
| B5 | expressed the split fusion insolubly |
| B6 | expressed the split fusion insolubly |
| B2 | produced insolubly |
| B3 | produced insolubly |
